In patent US20090291890A1 (published 2009):
Changes are numbered by the printed parent chain. Numbers in names are those of the source. Values belong to the binder of their own block, whether it stands above or below them.

Experiments:
[1] = biological target: Factor X (Homo sapiens (Human)) (UniProt P00742)
[2] = biological target: T1, soluble tissue factor (recombinant human Coagulation Factor III/soluble tissue factor; R&D Systems) (human); assay: SPR (Biacore T100), sTF on chip, two-state fit
T1 chain: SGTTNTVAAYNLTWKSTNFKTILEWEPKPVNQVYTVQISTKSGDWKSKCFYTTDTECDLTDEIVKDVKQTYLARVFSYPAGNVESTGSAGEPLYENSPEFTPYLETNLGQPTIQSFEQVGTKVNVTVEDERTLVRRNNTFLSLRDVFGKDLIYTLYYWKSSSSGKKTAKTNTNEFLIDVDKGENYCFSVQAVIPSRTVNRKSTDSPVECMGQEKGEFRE

Mesyl-dFPR-ACC = biological target: T2, Mesyl-dFPR-ACC
T2 sequence (peptide, N-terminal mesyl; D-Phe at position 1 (dF); C-terminal ACC fluorophore): FPR

Factor X (Homo sapiens (Human)), sequence (P00742 41-488 limits assumed): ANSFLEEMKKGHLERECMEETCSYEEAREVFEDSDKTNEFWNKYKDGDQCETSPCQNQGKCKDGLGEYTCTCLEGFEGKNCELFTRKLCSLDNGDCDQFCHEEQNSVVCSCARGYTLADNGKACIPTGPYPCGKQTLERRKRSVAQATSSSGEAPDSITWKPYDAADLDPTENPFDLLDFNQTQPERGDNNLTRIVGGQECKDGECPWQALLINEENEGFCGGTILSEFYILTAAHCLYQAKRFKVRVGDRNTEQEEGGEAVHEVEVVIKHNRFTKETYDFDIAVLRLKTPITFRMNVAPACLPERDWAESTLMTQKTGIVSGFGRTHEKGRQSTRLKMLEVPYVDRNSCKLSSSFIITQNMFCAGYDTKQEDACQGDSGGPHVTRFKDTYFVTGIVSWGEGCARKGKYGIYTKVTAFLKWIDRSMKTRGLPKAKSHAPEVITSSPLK

B3: FVIIa S222A/Q286R/M298Q/H373F (enzyme)
chain: ANAFLEELRPGSLERECKEEQCSFEEAREIFKDAERTKLFWISYSDGDQCASSPCQNGGSCKDQLQSYICFCLPAFEGRNCETHKDDQLICVNENGGCEQYCSDHTGTKRSCRCHEGYSLLADGVSCTPTVEYPCGKIPILEKRNASKPQGRIVGGKVCPKGECPWQVLLLVNGAQLCGGTLINTIWVVSAAHCFDKIKNWRNLIAVLGEHDLSEHDGDEQARRVAQVIIPSTYVPGTTNHDIALLRLHQPVVLTDHVVPLCLPERTFSERTLAFVRFSLVSGWGRLLDRGATALELQVLNVPRLMTQDCLQQSRKVGDSPNITEYMFCAGYSDGSKDSCKGDSGGPHATHYRGTWYLTGIVSWGQGCATVGFFGVYTRVSQYIEWLQKLMRSEPRPGVLLRAPFP
kcat/KM (M^-1s^-1), TF-dependent assay [1]: 1.48e+08 M⁻¹ s⁻¹ | Affinity Kd-WT/Kd-mut [2]: 3.7 | Kd [2]: 2.1 nM | Activity (µmol/sec/µmol), specific activity for mesyl-dFPR-ACC (µmol/sec/µmol) (Mesyl-dFPR-ACC): 2.79

B4: FVIIa S222A/Q286R (enzyme)
chain: B3 chain with Q298M, F373H
Affinity Kd-WT/Kd-mut [2]: 2.3 | Kd [2]: 3.4 nM

B5: FVIIa T239I (enzyme)
chain: B3 chain with A222S, T239I, R286Q, Q298M, F373H
Affinity Kd-WT/Kd-mut [2]: 1.2 | Kd [2]: 6.2 nM

B7: FVIIa T239I/Q286R (enzyme)
chain: B3 chain with A222S, T239I, Q298M, F373H
Affinity Kd-WT/Kd-mut [2]: 1 | Kd [2]: 8 nM

B8: FVIIa A175S (enzyme)
chain: B3 chain with A175S, A222S, R286Q, Q298M, F373H
Affinity Kd-WT/Kd-mut [2]: 0.6 | Kd [2]: 12.3 nM

B9: FVIIa S222A/H257A/Q286R (enzyme)
chain: B3 chain with H257A, Q298M, F373H
Affinity Kd-WT/Kd-mut [2]: 1.3 | Kd [2]: 6 nM

B10: FVIIa S222A/T239V/H257A/Q286R/M298Q (enzyme)
chain: B3 chain with T239V, H257A, F373H
kcat/KM (M^-1s^-1), TF-dependent assay [1]: 2.14e+08 M⁻¹ s⁻¹ | kcat/KM, TF-independent assay [1]: 143 M⁻¹ s⁻¹ | Affinity Kd-WT/Kd-mut [2]: 3.4 | Kd [2]: 2.2 nM | Activity (µmol/sec/µmol), specific activity for mesyl-dFPR-ACC (µmol/sec/µmol) (Mesyl-dFPR-ACC): 1.66

B14: FVIIa H257S (enzyme)
chain: B3 chain with A222S, H257S, R286Q, Q298M, F373H
Affinity Kd-WT/Kd-mut [2]: 1.2 | Kd [2]: 6.6 nM

Second part, the binder after the results:

kcat/KM (M^-1s^-1), TF-dependent assay [1]: 1.49e+08 M⁻¹ s⁻¹ | kcat/KM, TF-independent assay [1]: 1020 M⁻¹ s⁻¹ | Affinity Kd-WT/Kd-mut [2]: 3.5 | Kd [2]: 2.2 nM | Activity (µmol/sec/µmol), specific activity for mesyl-dFPR-ACC (µmol/sec/µmol) (Mesyl-dFPR-ACC): 1.83
B1: FVIIa V158D/Q286R/E296V/M298Q (enzyme)
chain: B3 chain with V158D, A222S, E296V, F373H

kcat/KM, TF-dependent assay [1]: 2.39e+08 M⁻¹ s⁻¹ | Affinity Kd-WT/Kd-mut [2]: 4.5 | Kd [2]: 1.7 nM | Activity (µmol/sec/µmol), specific activity for mesyl-dFPR-ACC (µmol/sec/µmol) (Mesyl-dFPR-ACC): 1.89
B2: FVIIa V158D/Q286R/E296V/M298Q/H373F (enzyme)
chain: B3 chain with V158D, A222S, E296V

kcat/KM (M^-1s^-1), TF-dependent assay [1]: 1.72e+08 M⁻¹ s⁻¹ | kcat/KM, TF-independent assay [1]: 29.3 M⁻¹ s⁻¹ | Affinity Kd-WT/Kd-mut [2]: 3.1 | Kd [2]: 2.5 nM | Activity (µmol/sec/µmol), specific activity for mesyl-dFPR-ACC (µmol/sec/µmol) (Mesyl-dFPR-ACC): 1.74
B6: FVIIa T239V/Q286R/M298Q (enzyme)
chain: B3 chain with A222S, T239V, F373H

Affinity Kd-WT/Kd-mut [2]: 1 | Kd [2]: 7.8 nM
B11: FVIIa T239I/Q286R/H373F (enzyme)
chain: B3 chain with A222S, T239I, Q298M

Affinity Kd-WT/Kd-mut [2]: 1.7 | Kd [2]: 2.3 nM | Activity (µmol/sec/µmol), specific activity for mesyl-dFPR-ACC (µmol/sec/µmol) (Mesyl-dFPR-ACC): 1.26
B12: FVIIa T239V/Q286R (enzyme)
chain: B3 chain with A222S, Y234V, Q298M, F373H

Affinity Kd-WT/Kd-mut [2]: 1.5 | Kd [2]: 5.2 nM
B13: FVIIa T239V (enzyme)
chain: B3 chain with A222S, T239V, R286Q, Q298M, F373H
